{"source": "paper PMC6827488", "about": "(ACS infectious diseases, 2019)", "binders": {"B1": {"name": "synthetic antigen-binding fragment sFab H3 (Fab, V domains shown)", "VH": "EVQLVESGGGLVQPGGSLRLSCAASGFNISYYYIHWVRQAPGKGLEWVASIYPYYGYTSYADSVKGRFTISADTSKNTAYLQMNSLRAEDTAVYYCARGSSWYGAHAFDYWGQGTLVTVSS", "VL": "DIQMTQSPSSLSASVGDRVTITCRASQSVSSAVAWYQQKPGKAPKLLIYSASSLYSGVPSRFSGSRSGTDFTLTISSLQPEDFATYYCQQGYYYAYSLITFGQGTKVEIK"}}, "molecular_target": "maltose-binding protein (MBP)-tagged mVP35 IID (Marburg virus, UniProt P35259)", "sequence (P35259 200-329)": "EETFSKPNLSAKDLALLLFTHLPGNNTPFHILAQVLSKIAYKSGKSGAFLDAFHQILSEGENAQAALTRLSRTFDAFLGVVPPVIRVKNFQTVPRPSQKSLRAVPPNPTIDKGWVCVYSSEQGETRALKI", "assay": "pull-down", "data": [{"binder": "B1", "values": [{"measurement": "binding result", "value": "binds"}]}]}
